According to the supplement of paper PMC5998384:

How the values were obtained:
HeLa Kyoto [1] = experiment: solubility change mitosis vs G1/S (difference of NP-40 vs SDS log2 ratios) (log2 ratio difference); higher = more soluble in mitosis
HeLa Kyoto [2] = experiment: melting temperature (median over replicates), in situ; higher = more thermally stable
HeLa Kyoto [3] = experiment: thermal stability score vs G1/S (z-score of summed log2 fold changes over temperatures); higher = more thermally stable than in G1/S
HeLa Kyoto [4] = experiment: solubility in G1/S (NP-40 vs SDS abundance) (log2 ratio); higher = more soluble; conditions: cell cycle stage: G1/S
[5] = cell cycle stage: early G1 (4.5 h after nocodazole release)
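Throughout, for melting temperature (median over replicates), in situ: HeLa Kyoto cells synchronized by double thymidine or nocodazole block, proteins quantified by TMT10plex mass spectrometry, three independent biological replicates.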
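Throughout, for solubility change mitosis vs G1/S (difference of NP-40 vs SDS log2 ratios): synchronized HeLa Kyoto cells (double thymidine block for G1/S, nocodazole release for mitosis), protein amounts in NP-40 versus SDS lysates quantified by mass spectrometry, three biological replicates.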
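Throughout, for solubility in G1/S (NP-40 vs SDS abundance): HeLa Kyoto cells arrested at G1/S by double thymidine block, proteins quantified by TMT10plex mass spectrometry in mild NP-40 versus SDS extracts, three biological replicates.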
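Throughout, for thermal stability score vs G1/S (z-score of summed log2 fold changes over temperatures): synchronized HeLa Kyoto cells, proteins quantified by TMT10plex mass spectrometry, three biological replicates, mitosis taken 0.5 h after nocodazole release, G1/S directly after double thymidine block.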

Sequence	solubility change mitosis (log2) (HeLa Kyoto [1])	melting temperature (HeLa Kyoto [2]; cell cycle stage: G1/S) [°C]	melting temperature (HeLa Kyoto [2]; cell cycle stage: mitosis) [°C]	thermal stability score (HeLa Kyoto [3]; [5])	thermal stability score (HeLa Kyoto [3]; cell cycle stage: mitosis)	solubility in G1/S (log2) (HeLa Kyoto [4])
MLAARLVCLRTLPSRVFHPAFTKASPVVKNSITKNQWLLTPSREYATKTRIGIRRGRTGQELKEAALEPSMEKIFKIDQMGRWFVAGGAAVGLGALCYYGLGLSNEIGAIEKAVIWPQYVKDRIHSTYMYLAGSIGLTALSAIAISRTPVLMNFMMRGSWVTIGVTFAAMVGAGMLVRSIPYDQSPGPKHLAWLLHSGVMGAVVAPLTILGGPLLIRAAWYTAGIVGGLSTVAMCAPSEKFLNMGAPLGVGLGLVFVSSLGSMFLPPTTVAGATLYSVAMYGGLVLFSMFLLYDTQKVIKRAEVSPMYGVQKYDPINSMLSIYMDTLNIFMRVATMLATGGNRKK [GHITM]	0.0227	54.7	55.1	-2.96	-4.77	-0.101
MLARAARGTGALLLRGSLLASGRAPRRASSGLPRNTVVLFVPQQEAWVVERMGRFHRILEPGLNILIPVLDRIRYVQSLKEIVINVPEQSAVTLDNVTLQIDGVLYLRIMDPYKASYGVEDPEYAVTQLAQTTMRSELGKLSLDKVFRERESLNASIVDAINQAADCWGIRCLRYEIKDIHVPPRVKESMQMQVEAERRKRATVLESEGTRESAINVAEGKKQAQILASEAEKAEQINQAAGEASAVLAKAKAKAEAIRILAAALTQHNGDAAASLTVAEQYVSAFSKLAKDSNTILLPSNPGDVTSMVAQAMGVYGALTKAPVPGTPDSLSSGSSRDVQGTDASLDEELDRVKMS [STOML2]	0.0559	56.9	59.3	-3.41	-3.22	0.262
MLCGRWRRCRRPPEEPPVAAQVAAQVAAPVALPSPPTPSDGGTKRPGLRALKKMGLTEDEDVRAMLRGSRLRKIRSRTWHKERLYRLQEDGLSVWFQRRIPRAPSQHIFFVQHIEAVREGHQSEGLRRFGGAFAPARCLTIAFKGRRKNLDLAAPTAEEAQRWVRGLTKLRARLDAMSQRERLDHWIHSYLHRADSNQDSKMSFKEIKSLLRMVNVDMNDMYAYLLFKECDHSNNDRLEGAEIEEFLRRLLKRPELEEIFHQYSGEDRVLSAPELLEFLEDQGEEGATLARAQQLIQTYELNETAKQHELMTLDGFMMYLLSPEGAALDNTHTCVFQDMNQPLAHYFISSSHNTYLTDSQIGGPSSTEAYVRAFAQGCRCVELDCWEGPGGEPVIYHGHTLTSKILFRDVVQAVRDHAFTLSPYPVILSLENHCGLEQQAAMARHLCTILGDMLVTQALDSPNPEELPSPEQLKGRVLVKGKKLPAARSEDGRALSDREEEEEDDEEEEEEVEAAAQRRLAKQISPELSALAVYCHATRLRTLHPAPNAPQPCQVSSLSERKAKKLIREAGNSFVRHNARQLTRVYPLGLRMNSANYSPQEMWNSGCQLVALNFQTPGYEMDLNAGRFLVNGQCGYVLKPACLRQPDSTFDPEYPGPPRTTLSIQVLTAQQLPKLNAEKPHSIVDPLVRIEIHGVPADCARQETDYVLNNGFNPRWGQTLQFQLRAPELALVRFVVEDYDATSPNDFVGQFTLPLSSLKQGYRHIHLLSKDGASLSPATLFIQIRIQRS [PLCD3]	0.0889	51.6	48.9	0.427	0.0629	-0.344
MLDFFTIFSKGGLVLWCFQGVSDSCTGPVNALIRSVLLQERGGNNSFTHEALTLKYKLDNQFELVFVVGFQKILTLTYVDKLIDDVHRLFRDKYRTEIQQQSALSLLNGTFDFQNDFLRLLREAEESSKIRAPTTMKKFEDSEKAKKPVRSMIETRGEKPKEKAKNSKKKGAKKEGSDGPLATSKPVPAEKSGLPVGPENGVELSKEELIRRKREEFIQKHGRGMEKSNKSTKSDAPKEKGKKAPRVWELGGCANKEVLDYSTPTTNGTPEAALSEDINLIRGTGSGGQLQDLDCSSSDDEGAAQNSTKPSATKGTLGGMFGMLKGLVGSKSLSREDMESVLDKMRDHLIAKNVAADIAVQLCESVANKLEGKVMGTFSTVTSTVKQALQESLVQILQPQRRVDMLRDIMDAQRRQRPYVVTFCGVNGVGKSTNLAKISFWLLENGFSVLIAACDTFRAGAVEQLRTHTRRLSALHPPEKHGGRTMVQLFEKGYGKDAAGIAMEAIAFARNQGFDVVLVDTAGRMQDNAPLMTALAKLITVNTPDLVLFVGEALVGNEAVDQLVKFNRALADHSMAQTPRLIDGIVLTKFDTIDDKVGAAISMTYITSKPIVFVGTGQTYCDLRSLNAKAVVAALMKA [SRPR]	-0.0915	50.5	50.9	1.98	2.56	0.119
MLEEAGEVLENMLKASCLPLGFIVFLPAVLLLVAPPLPAADAAHEFTVYRMQQYDLQGQPYGTRNAVLNTEARTMAAEVLSRRCVLMRLLDFSYEQYQKALRQSAGAVVIILPRAMAAVPQDVVRQFMEIEPEMLAMETAVPVYFAVEDEALLSIYKQTQAASASQGSASAAEVLLRTATANGFQMVTSGVQSKAVSDWLIASVEGRLTGLGGEDLPTIVIVAHYDAFGVAPWLSLGADSNGSGVSVLLELARLFSRLYTYKRTHAAYNLLFFASGGGKFNYQGTKRWLEDNLDHTDSSLLQDNVAFVLCLDTVGRGSSLHLHVSKPPREGTLQHAFLRELETVAAHQFPEVRFSMVHKRINLAEDVLAWEHERFAIRRLPAFTLSHLESHRDGQRSSIMDVRSRVDSKTLTRNTRIIAEALTRVIYNLTEKGTPPDMPVFTEQMQIQQEQLDSVMDWLTNQPRAAQLVDKDSTFLSTLEHHLSRYLKDVKQHHVKADKRDPEFVFYDQLKQVMNAYRVKPAVFDLLLAVGIAAYLGMAYVAVQHFSLLYKTVQRLLVKAKTQ [NCLN]	-0.129	53.9	53.7	2.71	3.43	0.0995
MLEEDMEVAIKMVVVGNGAVGKSSMIQRYCKGIFTKDYKKTIGVDFLERQIQVNDEDVRLMLWDTAGQEEFDAITKAYYRGAQACVLVFSTTDRESFEAVSSWREKVVAEVGDIPTVLVQNKIDLLDDSCIKNEEAEALAKRLKLRFYRTSVKEDLNVNEVFKYLAEKYLQKLKQQIAEDPELTHSSSNKIGVFNTSGGSHSGQNSGTLNGGDVINLRPNKQRTKKNRNPFSSCSIP [RAB23]	-0.139	53.2	53.2	1.88	1.67	-0.0011
MLERRCRGPLAMGLAQPRLLSGPSQESPQTLGKESRGLRQQGTSVAQSGAQAPGRAHRCAHCRRHFPGWVALWLHTRRCQARLPLPCPECGRRFRHAPFLALHRQVHAAATPDLGFACHLCGQSFRGWVALVLHLRAHSAAKRPIACPKCERRFWRRKQLRAHLRRCHPPAPEARPFICGNCGRSFAQWDQLVAHKRVHVAEALEEAAAKALGPRPRGRPAVTAPRPGGDAVDRPFQCACCGKRFRHKPNLIAHRRVHTGERPHQCPECGKRFTNKPYLTSHRRIHTGEKPYPCKECGRRFRHKPNLLSHSKIHKRSEGSAQAAPGPGSPQLPAGPQESAAEPTPAVPLKPAQEPPPGAPPEHPQDPIEAPPSLYSCDDCGRSFRLERFLRAHQRQHTGERPFTCAECGKNFGKKTHLVAHSRVHSGERPFACEECGRRFSQGSHLAAHRRDHAPDRPFVCPDCGKAFRHKPYLAAHRRIHTGEKPYVCPDCGKAFSQKSNLVSHRRIHTGERPYACPDCDRSFSQKSNLITHRKSHIRDGAFCCAICGQTFDDEERLLAHQKKHDV [REPIN1]	-0.0234	54.4	52.9	-0.836	-2.05	-0.0762
MLFIFNFLFSPLPTPALICILTFGAAIFLWLITRPQPVLPLLDLNNQSVGIEGGARKGVSQKNNDLTSCCFSDAKTMYEVFQRGLAVSDNGPCLGYRKPNQPYRWLSYKQVSDRAEYLGSCLLHKGYKSSPDQFVGIFAQNRPEWIISELACYTYSMVAVPLYDTLGPEAIVHIVNKADIAMVICDTPQKALVLIGNVEKGFTPSLKVIILMDPFDDDLKQRGEKSGIEILSLYDAENLGKEHFRKPVPPSPEDLSVICFTSGTTGDPKGAMITHQNIVSNAAAFLKCVEHAYEPTPDDVAISYLPLAHMFERIVQAVVYSCGARVGFFQGDIRLLADDMKTLKPTLFPAVPRLLNRIYDKVQNEAKTPLKKFLLKLAVSSKFKELQKGIIRHDSFWDKLIFAKIQDSLGGRVRVIVTGAAPMSTSVMTFFRAAMGCQVYEAYGQTECTGGCTFTLPGDWTSGHVGVPLACNYVKLEDVADMNYFTVNNEGEVCIKGTNVFKGYLKDPEKTQEALDSDGWLHTGDIGRWLPNGTLKIIDRKKNIFKLAQGEYIAPEKIENIYNRSQPVLQIFVHGESLRSSLVGVVVPDTDVLPSFAAKLGVKGSFEELCQNQVVREAILEDLQKIGKESGLKTFEQVKAIFLHPEPFSIENGLLTPTLKAKRGELSKYFRTQIDSLYEHIQD [ACSL5]	-0.0802	51.8	51.1	-0.104	-0.53	-0.0641
